Source: patent US7078478B2, “Inhibition of the proliferation of cells of the multiple myeloma” (GSF-Forschungszentrum für Umwelt Gesundheit, GmbH, priority 1999, dated 2006)

Tests used:
[1] = biological target: deletion mutant Δ771-827 of Eg (mouse; human) (UniProt P14753); assay: co-immunoprecipitation with anti-Hck, anti-His blot, Cos-7 lysates (FIG. 5B)
[2] = biological target: deletion mutant Δ771-827 of Eg (mouse; human) (UniProt P14753); assay: co-immunoprecipitation with anti-Hck, anti-His blot, Cos-7 lysates (FIG. 5A)
[3] = biological target: deletion mutant Δ771-827 of Eg (mouse; human) (UniProt P14753); assay: co-immunoprecipitation with anti-Hck, anti-His blot, Cos-7 lysates (FIG. 6)
[4] = biological target: DDM mutant (double point and deletion mutant) of Eg (mouse; human) (UniProt P14753); assay: as above
[5] = test system: IL-6 dependent murine cell line 7TD-1; assay: IL-6 induced cell proliferation of 7TD-1 cells incubated with peptides, microscopic cell counting; type: cell-based; conditions: 7TD-1 stimulated with 40 pg IL-6, 100 μM peptide, 4 days, compared with untreated or unstimulated cells
Protocol: Subfragments of the previously described 41 amino acid Hck binding domain of gp130 were used to narrow down the essential parts of this domain. The subfragments, which are shown in FIG. 12, were synthesized by solid phase synthesis, N-terminally coupled to myristate in order to render them membrane soluble, and diluted in DMSO. A MM-cell line was incubated with the different peptides and cell proliferation was measured.
To determine the effects of the different peptides on IL-6 induced cell proliferation, the IL-6 dependent murine cell line 7TD-1 was stimulated with 40 pg of IL-6 and incubated with 100 μM of the different peptides. After 4 days, the cell proliferation was determined by microscopic cell counting.

Substance	loss of gp130 co-precipitation with Hck [1] [%]	decrease of Hck co-precipitation with gp130 [2] [%]	reduction of Hck binding to gp130 [3] [%]	reduction of Hck binding to gp130 [4] [%]	cell proliferation [5]
Hck tyrosine kinase (wild type Hck, expressed from pcDNA3-Hck or pDpuro-Hck) (from UniProt P08631 2-526) (enzyme)	90	> 90	> 90	> 90	–
LLDSEERPEDLQLVD [compound 6]	–	–	–	–	down regulation of cell proliferation to the basal level
TQPLLDSEERPEDLQLVD [compound 2]	–	–	–	–	down regulation of cell proliferation to the basal level
